Measurements taken from US20190016816A1.

Target: FcγRIIa (CD32a His131) (UniProt P12318)
Assay: flow cytometry, CHO cells stably expressing CD32a His131, fluorescent anti-human IgG secondary, MFI (mean)

Sequence of FcγRIIa (CD32a His131) (P12318 34-317 limits assumed): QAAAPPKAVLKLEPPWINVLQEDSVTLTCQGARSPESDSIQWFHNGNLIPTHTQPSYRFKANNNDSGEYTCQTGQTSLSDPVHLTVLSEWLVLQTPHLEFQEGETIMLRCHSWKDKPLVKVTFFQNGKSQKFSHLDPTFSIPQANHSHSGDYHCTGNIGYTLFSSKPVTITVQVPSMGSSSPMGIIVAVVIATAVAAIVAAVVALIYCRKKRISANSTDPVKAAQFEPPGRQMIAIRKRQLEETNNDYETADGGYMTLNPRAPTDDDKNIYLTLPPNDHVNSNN

EC50 (read off the curve): 9 nM
Substance: control human IgG1 molecule (antibody)
